The text below walks through data of patent US20110244493A1 (COMMONWEALTH MEDICAL COLLEGE, published 2011).

This assay concerns the target T1, cytoskeletal associated protein 4 (CKAP4), endogenous in HeLa or normal bladder epithelial cells (Homo sapiens, UniProt Q07065 1-602, reversibly palmitoylated on cysteine 100).
T1 sequence: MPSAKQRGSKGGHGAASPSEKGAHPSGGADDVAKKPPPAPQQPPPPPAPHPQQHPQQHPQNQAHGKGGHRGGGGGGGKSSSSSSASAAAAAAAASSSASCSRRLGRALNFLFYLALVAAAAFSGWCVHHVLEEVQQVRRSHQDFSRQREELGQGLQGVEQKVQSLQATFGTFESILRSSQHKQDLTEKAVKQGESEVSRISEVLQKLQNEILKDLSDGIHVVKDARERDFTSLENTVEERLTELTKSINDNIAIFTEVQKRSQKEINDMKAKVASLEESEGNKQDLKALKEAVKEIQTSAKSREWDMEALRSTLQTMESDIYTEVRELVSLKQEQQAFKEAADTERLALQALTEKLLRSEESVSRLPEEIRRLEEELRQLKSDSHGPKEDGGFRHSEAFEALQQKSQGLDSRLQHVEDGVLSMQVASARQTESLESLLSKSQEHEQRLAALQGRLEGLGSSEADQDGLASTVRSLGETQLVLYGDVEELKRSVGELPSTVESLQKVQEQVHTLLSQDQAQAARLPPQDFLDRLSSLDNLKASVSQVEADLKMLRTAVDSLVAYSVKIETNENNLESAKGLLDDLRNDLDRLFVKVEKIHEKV
The assay is described as follows: cell-based or functional assay.

B1: antiproliferative factor (APF), synthetic (peptide)
peptide: TVPAAVVVA
modifications: sialic acid α-2,3 linked to galactose P1-3-N-acetylgalactosamine, which is α-O-linked to the N-terminal threonine residue of the nonapeptide (printed as '3 carbohydrate moieties-T-V-P-A-A-V-V-V-A')
Turning to B1, the “abundance of CKAP4 in the nucleus (nuclear fractionation and Western blot, HeLa cells)” value amounted to 5 fold.
